Data set [1] in a line: folding stability dG unfold from chymotrypsin proteolysis; higher = more stable. As for the experimental part:
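Folding stability of de novo designed mini-proteins (<80 aa, no Cys; designed by TrROS, TrMRF, ProteinMPNN and the joint model) was measured by cDNA display proteolysis with trypsin and chymotrypsin. Each protease was used at 11 concentrations in a threefold dilution series plus a no-protease condition. K50 was inferred by Bayesian fitting of sequencing counts, and dG unfold was derived against a sequence-predicted unfolded-state K50 (Tsuboyama et al. method). Sequences shown include variable-length N-terminal GS-type padding (SAGGSAGG...) inside a display construct carrying a PA tag. Rows were kept only if the AF2 dimer inter-PAE was >15, to exclude likely homo-oligomers.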

Data set [2] in a line: folding stability dG unfold (combined trypsin and chymotrypsin); higher = more stable. The method in brief:
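Unfolding free energy was derived, per protease or combined, against a sequence-predicted unfolded-state K50 and a shared folded-state K50, starting from K50 inferred by Bayesian fitting of sequencing counts. Digestion with trypsin and chymotrypsin was carried out on designed mini-proteins under 80 residues without cysteine in a PA-tagged cDNA display construct. Only designs with AlphaFold2 dimer inter-PAE above 15 were kept.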

± gives the half width of the 95% confidence interval.

Regarding “SAGGSAGGSAGMEMKLRPEPVVEVTPTVTTEPDPSLGTTVTTTTYTFDNGEVKTETDTGGSAGGSAGGSAGG [r11_463_JUSTAS]”, the “folding stability dG unfold” value in data set [1] is 0.0371 ± 0.25 kcal/mol; in data set [2], -0.441 ± 0.28 kcal/mol.
In the same order, the values of “SAGGSAGGSAGMKVFIFKDPEKAIEAIKEFAGKNGVKYKIIEIETTPDGYVKIKVEFEPISAGGSAGGSAGG [r11_304_TrMRF]” are 5.31 ± 0.22 kcal/mol and 5.48 ± 0.25 kcal/mol.
In the same order, the values of “SAGGSAGGSAGMKYIEEAKAKAKPDKKLKITIPPSLPVEEVRKELLEEVPIDDVEFIKNLSAGGSAGGSAGG [r11_524_JUSTAS]” are -0.491 ± 0.26 kcal/mol and under -1 kcal/mol.
In the same order, the values of “SAGGSAGGSAGMLNTTVTVSIPTPEGKVETITIPPGVPLEEAKAKVAEPRPGAEITEIVRVSAGGSAGGSAG [r3_60_JUSTAS]” are 0.764 ± 0.044 kcal/mol and 0.165 ± 0.21 kcal/mol.
As to “SAGGSAGGSAGMRLLVEKPEGPVPTVTEVEVPLPEGDKARLEEVKEELKKKGYKKVIFLDSAGGSAGGSAGG [r11_196_JUSTAS]”, the “folding stability dG unfold” value is -0.417 ± 0.37 kcal/mol in data set [1] and under -1 kcal/mol in data set [2].
In the same order, the values of “SAGGSAGGSAGMTITVYPSDGTVLTRDMSLSEIPELLKKHPELVLESIEEGEGLAKFKVKSAGGSAGGSAGG [r17_22_JUSTAS]” are -1.05 ± 0.81 kcal/mol and under -1 kcal/mol.
As for “SAGGSAGGSAGMTSTVTEVRPGSDSWTVTVTYSENSSTKTQTLTVPAGPTVRSGLPSVVSSAGGSAGGSAGG [r11_921_JUSTAS]”, the entries for the “folding stability dG unfold” value in data set [1] and in data set [2] were 0.209 ± 0.15 kcal/mol and -0.435 ± 0.23 kcal/mol, respectively.
In the same order, the values of “SAGGSAGGSAGMVVETEVLETTPPGRTVRTRTTTREKTPDNAPVTTESESVTEVPSPPLESAGGSAGGSAGG [r11_689_JUSTAS]” are 0.615 ± 0.026 kcal/mol and 0.273 ± 0.081 kcal/mol.
For the sequence “SAGGSAGGSAGPKSIPLDNATVTEFDSPNGDKVFIFSHPNKKKRLAILKDGKLVKEIPIESAGGSAGGSAGG [r11_1038_TrMRF]”, the “folding stability dG unfold” value in data set [1] was 0.0908 ± 0.31 kcal/mol; in data set [2], -0.26 ± 0.3 kcal/mol.
Regarding “SAGGSAGGSAGPTITYHPDGRVRIDLHLPNGELLDTGVITPDEAVRLLLETGVRLRTIRPSAGGSAGGSAGG [r11_521_TrMRF]”, the “folding stability dG unfold” value amounted to 0.662 ± 0.11 kcal/mol in data set [1] and 0.166 ± 0.19 kcal/mol in data set [2].
In the same order, the values of “SAGGSAGGSAGPVIRIPDATVTTDPATGTLTVTTAGRTVTVPPGATVTVLPDGTVVVERPSAGGSAGGSAGG [r17_34_JUSTAS]” are 0.759 ± 0.035 kcal/mol and -0.0514 ± 0.067 kcal/mol.
The like results for “SAGGSAGGSAGRTIMIPPNQTAEEAVNHLKEELPPGNKNVTINYWDGDGEWEKFEIEVKKSAGGSAGGSAGG [r17_215_TrROS]” were, in that order, -0.616 ± 0.44 kcal/mol and under -1 kcal/mol.
For “SAGGSAGGSAGSAPAGALVTEEVSLEETETFFDPTTKKPLRTVRVTVPVKRERVVSPALPSAGGSAGGSAGG [r11_970_JUSTAS]”, the “folding stability dG unfold” value was -0.795 ± 0.69 kcal/mol in data set [1] and under -1 kcal/mol in data set [2].
With “SAGGSAGGSAGSEVEKARNAALEARRAGVEEVTITMPEELKEKVTALAKEEGINLKIESESAGGSAGGSAGG [r11_371_JUSTAS]”, the “folding stability dG unfold” value is 0.0457 ± 0.19 kcal/mol in data set [1] and -0.351 ± 0.36 kcal/mol in data set [2].
For the sequence “SAGGSAGGSAGSMPVTVTERVVTSETPLPTDELAVKTTVTYPDGTAADFTRLLPPDAPLESAGGSAGGSAGG [r11_429_JUSTAS]”, the results for the “folding stability dG unfold” value in data set [1] and in data set [2] were 0.875 ± 0.042 kcal/mol and 0.158 ± 0.18 kcal/mol, respectively.
As to “SAGGSAGGSAGSSSFIRKGKDGSRITATPSPSYITISTFPLKGGGIVPSTKTTTLPPSLLSAGGSAGGSAGG [r11_88_JUSTAS]”, the “folding stability dG unfold” value in data set [1] is -0.915 ± 0.45 kcal/mol; in data set [2], under -1 kcal/mol.
The like results for “SAGGSAGGSAGVKIRMRGPNGSESKIPVPPDAIQDKFPPGDPIRIPIHRHNNNFHMDIEPVSAGGSAGGSAG [r3_86_TrROS]” were, in that order, 0.353 ± 0.043 kcal/mol and -0.0674 ± 0.086 kcal/mol.
In the same order, the values of “SAGGSAGGSAKKELKIGNVEHNPGDGRYWANIQIKDGKPIVPVEFDDPQDPERFVKKAIKQLSAGGSAGGSA [r18_479_TrROS]” are -0.706 ± 0.41 kcal/mol and under -1 kcal/mol.
Take “SAGGSAGGSAKTVEIPLKDLKPDKDGKYNYDEIQDQIKEKFPPNGIDKVDIDTPRQIWDQFRSAGGSAGGSA [r18_72_TrROS]”: the “folding stability dG unfold” value was 0.157 ± 0.21 kcal/mol in data set [1] and -0.329 ± 0.42 kcal/mol in data set [2].
The like results for “SAGGSAGGSALPPGEPVEFPWRIKMGGEEHDVKRTVYRDPDGNVKLNIEIPMPPGNFEIEPVSAGGSAGGSA [r18_428_TrROS]” were, in that order, 0.206 ± 0.22 kcal/mol and -0.451 ± 0.4 kcal/mol.
For the sequence “SAGGSAGGSAMGPPVRRVTITLSDGTRYEVDVAPDDSVAAVRAPLAAHPDVAAVTELTVEPSAGGSAGGSAG [r3_308_JUSTAS]”, the “folding stability dG unfold” value in data set [1] was 0.99 ± 0.044 kcal/mol; in data set [2] it was 0.282 ± 0.084 kcal/mol.

(Values after the supplement of paper PMC12764529.)
